Results reported in publication PMC5699081 (Proceedings of the National Academy of Sciences of the …, 2017).

Biological target: T1, GST-MPSR1 (Misfolded Protein Sensing RING E3 ligase 1) (Arabidopsis thaliana, UniProt Q9LQX2 1-204)
T1 sequence (looked up): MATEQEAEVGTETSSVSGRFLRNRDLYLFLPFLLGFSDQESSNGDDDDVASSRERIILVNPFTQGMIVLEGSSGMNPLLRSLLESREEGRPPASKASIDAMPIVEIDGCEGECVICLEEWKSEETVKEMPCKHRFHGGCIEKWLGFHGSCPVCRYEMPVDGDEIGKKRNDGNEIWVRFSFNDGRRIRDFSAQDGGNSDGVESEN
Experiment: pull-down

binding result: binds
B1: His-MPSR1-DN (enzyme, Arabidopsis thaliana, UniProt Q9LQX2 1-204, looked up)
chain: MATEQEAEVGTETSSVSGRFLRNRDLYLFLPFLLGFSDQESSNGDDDDVASSRERIILVNPFTQGMIVLEGSSGMNPLLRSLLESREEGRPPASKASIDAMPIVEIDGCEGECVICLEEWKSEETVKEMPCKHRFHGGCIEKWLGFHGSCPVSRYEMPVDGDEIGKKRNDGNEIWVRFSFNDGRRIRDFSAQDGGNSDGVESEN
